# Results published in US9999679B2, “Aminofucoidan as a vector for fibrinolysis in thrombotic diseases” (INSTITUT NATIONAL DE LA SANTE ET DE LA RECHERCHE MEDICALE, priority 2013, dated 2018).
# Legend:
# platelet-rich thrombus = assay: Ex vivo fibrinolysis of platelet-rich plasma clots (fluorescence release, clot weight loss); parameters: species or system Human; settings: 17H/37° C. incubation; p<0.01; FIG. 1
# Method: (§1) Human platelet-rich and -poor plasma (PRP and PPP) were obtained from citrated blood after two centrifugation steps: at 120 g for 15 minutes followed by a second centrifugation step at 1200 g for 12 min. PRP was adjusted to 3×10^8 platelets per mL with poor platelet plasma (PPP) and supplemented with 75 μg/mL of fluorescein isothiocyanate-fibrinogen. Clot formation was induced by adding 10 mmol/L CaCl2 in glass tubes and incubated for 1 hour at 37° C. After retraction, clots were washed in Hank's buffer (Sigma), rapidly dryed on an absorbent paper and weighed. To assess fibrinolysis, PRP or PPP clots were incubated in Hanks' buffer containing the vectorized t-PA complexes (corresponding to 10 UI of t-PA, or 1.72 μg/mL) for 1 h at room temperature. Clots were transferred in a new eppendorf containing 500 μl of Hank's buffer supplemented with 1 μM of human plasminogen. The kinetic of fibrinolysis was evaluated by measuring the release of fluorescence from the clot to the supernatant with a spectrofluorimeter (485/520 nm). […]
# (§2) Aminofucoidans were used in variables molecular ratio to t-PA (10 UI (corresponding to 1.72 μg/ml): the 1/10 ratio was used for mono-amine fucoidans and 1/5 for poly-amine fucoidans. Evaluation criteria were the initial lysis kinetic (appearance of fluorescence in supernatant) and the final thrombus weight loss at 17H/37° C. incubation. […]
# platelet-poor thrombus = assay: Ex vivo fibrinolysis of platelet-poor plasma clots (fluorescence release, clot weight loss); parameters: species or system Human
# Method: as §1, §2
# [1] = test system: thrombus performed in total blood, including Red Blood Cells; assay: Rotative thromboelastography (Rotem) lysis of thrombus in total blood; settings: plasma PAI-1 present, ratio (t-PA/fuco) 1/5 or 1/10
# Text: Thromboelastography experiments have been carried out on a rotative thromboelastograph (Rotem®) as described in Boulaftali et al. (Boulaftali Y, Ho Tin Noe B, Pena A, Loyau S, Venisse L, Francois D, Richard B, Arocas V, Collet J P, Jandrot-Perrus M, Bouton M C. PLatelet Protease Nexin-1, a Serpin that Strongly Influences Fibrinolysis and Thrombolysis. Circulation. 2011; 123:1326-1334) and Mallet et al. (Mallet S V, Cox D J A. Thromboelastograph Analysis. British J of anaest. 1992; 69:307-313).
# In a third series of in vitro experiments, the ability of aminofucoidans to accelerate the lysis of a thrombus performed in total blood, including Red Blood Cells, has been tested with rotative thromboelastography (Rotem®). In this experiment dilysine-fucoidan vectorized t-PA, in a ratio (t-PA/fuco) of 1/5 or 1/10 increased the thrombus lysis to 75% as compared to t-PA alone (55%). In this experiment, the plasma PAI-1 was present.
# mesenteric thrombi = assay: FeCl3-induced mesenteric vessel thrombosis, intravital imaging of thrombolysis; format: in vivo; settings: mice, intravenous; 1 hour following FeCl3-induced injury (~45 min following treatment)
# Text: The group has recently published the ability of intravital microscopy to follow the lysis of thrombus in vivo. Thus, validation of t-PA vectorization by amino-fucoidans with intravital microscopy has been carried out according to the protocols described in Boulaftali et al. (Boulaftali et al., 2011, Platelet protease nexin-1, a serpin that strongly influences fibrinolysis and thrombolysis. Circulation; Boulaftali et al., 2012, The mouse dorsal skinfold chamber as a model for the study of thrombolysis by intravital microscopy. Thromb Haemost).
# The thrombus is induced by local application of iron oxide on exposed vessels in mice. Fluorescent t-PA or a mixture of amino-fucoidans and t-PA are intravenously injected after iron oxide local application The fluorescence of t-PA and thrombus lysis were followed by intravital transillumination of the mesenteric tissue.
# More precisely, after anesthesia (100 mg/kg ketamine, 10 mg/kg xylazine) and laparotomy, mouse mesenteric vessels were exposed for induction of thrombosis and video-microscopic intravital observation. […] Platelet deposition and thrombus growth were monitored for 15 minutes following injury and fluorescent t-PA±DiLysine-fucoidan was then injected intravenously to thrombolysis of the partially occlusive-formed thrombi. […]
# [2] = Product No 173 from American diagnostic; cited from earlier work
molecule,measurement,setting,value
"t-PA: Single-chain recombinant tissue plasminogen activator, secreted by CHO cells transfected with human t-PA cDNA (American diagnostica) (protein, listed as Homo sapiens, single-chain recombinant; /mol_type=“protein” /organism=“Homo sapiens”) MDAMKRGLCCVLLLCGAVFVSPSQEIHARFRRGARSYQVICRDEKTQMIYQQHQSWLRPVLRSNRVEYCWCNSGRAQCHSVPVKSCSEPRCFNGGTCQQALYFSDFVCQCPEGFAGKCCEIDTRATCYEDQGISYRGTWSTAESGAECTNWNSSALAQKPYSGRRPDAIRLGLGNHNYCRNPDRDSKPWCYVFKAGKYSSEFCSTPACSEGNSDCYFGNGSAYRGTHSLTESGASCLPWNSMILIGKVYTAQNPSAQALGLGKHNYCRNPDGDAKPWCHVLKNRRLTWEYCDVPSCSTCGLRQYSQPQFRIKGGLFADIASHPWQAAIFAKHRRSPGERFLCGGILISSCWILSAAHCFQERFPPHHLTVILGRTYRVVPGEEEQKFEVEKYIVHKEFDDDTYDNDIALLQLKSDSSRCAQESSVVRTVCLPPADLQLPDWTECELSGYGKHEALSPFYSERLKEAHVRLYPSSRCTSQHLLNRTVTDNMLCAGDTRSGGPQANLHDACQGDSGGPLVCLNDGRMTLVGIISWGLGCGQKDVPGVYTKVTNYLDWIRDNMRP",loss of platelet-rich thrombus weight,platelet-rich thrombus,30%
same,thrombi weight loss at 17H,platelet-poor thrombus,97%
same,thrombus lysis,[1],55%
same,vessel occlusion / perfusion of injured vessels,mesenteric thrombi,occlusive thrombosis of injured vessels had occurred in all 3 mice
same,specific activity,[2],approximately 580 000 UI/mg
